From patent publication US20160311886A1, “Constructs Binding to Phosphatidylserine and Their Use in Disease Treatment and Imaging” (Board of Regents, The University of Texas System, priority 2005, published 2016)

Columns and labels:
[1] = tested on: cancer patients having progressive disease; conditions: human, in vivo; cited from earlier work
[2] = in vivo; cited from earlier work
[3] = Fc-mβ2GPI binding to PS-coated plates; conditions: cell culture supernatants #8 and #18
Experimental: FIG. 20. Fc-mβ2GPI binds PS on PS-coated plates. In this binding assay, a microtiter plate was coated with PS and blocked with 1% OVA. Serial dilutions of Fc-mβ2GPI cell culture supernatants were performed in 1% OVA. #8 and #18 are two different clones of Fc-mβ2GPI. Binding was detected with anti-mouse IgG-HRP.
Fc-mβ2GPI was able to bind to PS on PS-coated plates.

[4] = Fc-mβ2GPI binding to phospholipids in 10% FBS
Experimental: FIG. 21. Fc-mβ2GPI binds anionic phospholipids. This assay measures Fc-mβ2GPI binding to phospholipids in 10% FBS. The microtiter plates were coated with various lipids, as indicated, and blocked with 1% OVA. Serial dilutions of Fc-mβ2GPI cell culture supernatant were performed in 1% OVA. Binding was detected with anti-mouse IgG-HRP.

ABAE cells = assay: Fc-mβ2GPI binding to cells with exposed PS; format: cell-based, bovine
Experimental: FIG. 22A, FIG. 22B and FIG. 22C. Fc-mβ2GPI detects PS exposed on naturally apoptotic ABAE cells. 2×10^4 ABAE cells were seeded onto 8-well glass chamber slides in DMEM+10% FBS overnight at 37° C. The next day, cells were washed and incubated with 2aG4 (FIG. 22A), supernatant from Fc-mβ2GPI transfected CHO cells (FIG. 22B), or mock transfected cells (“control supernatant”, FIG. 22C). 2aG4 and Fc-mβ2GPI were detected with a FITC-labeled secondary antibody (green). The cytoskeletons and nuclei were counter-stained with Texas Red-labeled phalloidin and DAPI (blue), respectively. Arrows highlight apoptotic cells.
FIG. 23A and FIG. 23B. Fc-mβ2GPI detects PS exposed on LPC-treated ABAE cells. 2×10^4 ABAE cells were seeded onto 8-well glass chamber slides in DMEM+10% FBS overnight at 37° C. The next day, cells were washed and incubated supernatant from Fc-mβ2GPI transfected CHO cells. Fc-mβ2GPI was detected with a FITC-labeled secondary antibody (green). The cytoskeletons and nuclei were counter-stained with Texas Red-labeled phalloidin and DAPI (blue), respectively. FIG. 23A and FIG. 23B each depict binding of Fc-mβ2GPI, seen as small pinpoints of green staining.

[5] = tested on: ABAE cells with exposed PS; assay: Live-cell binding assay on LPC-treated endothelial cells; format: cell-based, bovine
Experimental: Adult bovine aortic endothelial (ABAE) cells were maintained in DMEM supplemented with 10% FBS and 2 mM L-glutamine. ABAE cells were removed from subconfluent cultures by brief exposure to 0.25% trypsin/0.02% EDTA, and 8-well chamber slides were seeded with 2×10^4 cells/well. Following overnight culture, cells were washed gently with PBS and treated with 200 μM lysophosphatidylcholine (LPC) to induce PS exposure.
PS exposure was determined by immunofluorescence staining. Cells were washed thoroughly in PBS, fixed in 4% paraformaldehyde (w/v), and incubated with a biotin-conjugated anti-mouse secondary antibody. Next, cells were incubated with FITC-conjugated streptavidin (Jackson Immunoresearch) to detect antibody binding. Cells were then permeablized with 0.1% Triton-X100 in PBS and counterstained with Texas Red-conjugated phalloidin (Molecular Probes, Eugene, Oreg.), and 4′, 6-diamidino-2-phenylindole (DAPI; Molecular Probes). Images were captured using a Coolsnap digital camera (Photometrics, Tucson, Ariz.) mounted on a Nikon microscope and processed with MetaVue software (Universal Imaging Corporation, Downingtown, Pa.).
The area of antibody binding was determined using MetaVue image analysis software, which is able to quantify the number of illuminated pixels in an image. Images of FITC fluorescence were used to quantify antibody binding. Corresponding images of DAPI fluorescence were used to normalize the FITC images for the number of cells present in the field. A small FITC/DAPI ratio indicates a small antibody binding area, whereas a large FITC/DAPI ratio indicates a large binding area. The FITC/DAPI ratios were used to determine increases or decreases in antibody binding area relative to a basal amount of antibody binding under the selected conditions. Five images at 200× magnification were used for each analysis. Data are presented as average relative FITC/DAPI ratios with error bars representing the standard deviation.
Cells were then washed, fixed, and stained with fluorescent markers to visualize binding of antibody to the cell surface.

[6] = tested on: ABAE cells with exposed PS; assay: Binding of monomeric and dimeric hβ2GPI to LPC-treated cells; format: cell-based, bovine; conditions: 200 μM LPC, DMEM+10% FBS
Experimental: FIG. 24A, FIG. 24B, FIG. 24C and FIG. 24D. An artificial dimeric β2GPI construct binds endothelial cells with exposed PS. ABAE cells were incubated for 30 min with 200 μM LPC in DMEM+10% FBS plus purified hβ2GPI-monomer (FIG. 24A), hβ2GPI-dimer (FIG. 24B), or a mutant hβ2GPI-dimer unable to bind lipid (FIG. 24C). Cells were then washed and incubated with anti-β2GPI to detect hβ2GPI monomers and dimers. […] Cells were then washed, fixed and stained with fluorescent markers. The cytoskeleton appears red, nuclei appear blue, and hβ2GPI-monomers and hβ2GPI-dimers appear green. FIG. 24D, the binding area of hβ2GPI-monomers and hβ2GPI-dimers was quantified using MetaVue software. All values are relative to the binding of hβ2GPI-dimers to non-LPC treated cells, which was set to one.
In these studies, an artificial β2GPI dimer is used, which was generated by fusing hβ2GPI to the C-terminus of the apple 4 dimerization domain of factor XI (Lutters et al., 2001). […] Nonetheless, binding of this dimer to cells with exposed PS validates the use of Fc-β2GPI dimers to bind to PS-positive cells.
ABAE cells were treated with LPC to induce PS exposure and incubated with purified hβ2GPI, hβ2GPI-dimer, or a mutant hβ2GPI-dimer containing a disrupted lipid binding domain. As expected, binding of the monomeric hβ2GPI to LPC-treated ABAE cells was negligible (FIG. 24A).

## NC(=O)c1nnn(Cc2cc(Cl)c(C(=O)c3ccc(Cl)cc3)c(Cl)c2)c1N [CAI, carboxyamidotriazole]
[1]
  patients with disease stabilization: 49%

## monophosphoryl lipid A [MPL]
[2]
  dose shown to be safe for human use: 100 μg/m^2

B1: Fc-mβ2GPI: Fc region of mouse IgG2a attached to full length mouse β2GPI (domains I-V); SEQ ID NO:19 (protein, listed as Mus musculus)
chain: EPRGPTIKPCPPCKCPAPNLLGGPSVFIFPPKIKDVLMISLSPIVTCVVVDVSEDDPDVQISWFVNNVEVHTAQTQTHREDYNSTLRVVSALPIQHQDWMSGKEFKCKVNNKDLPAPIERTISKPKGSVRAPQVYVLPPPEEEMTKKQVTLTCMVTDFMPEDIYVEWTNNGKTELNYKNTEPVLDSDGSYFMYSKLRVEKKNWVERNSYSCSVVHEGLHNHHTTKSFSRTPGKTGGRICPKPDDLPFATVVPLKTSYDPGEQIVYSCKPGYVSRGGMRRFTCPLTGMWPINTLRCVPRVCPFAGILENGIVRYTSFEYPKNISFACNPGFFLNGTSSSKCTEEGKWSPDIPACARITCPPPPVPKFALLKDYRPSAGNNSLYQDTVVFKCLPHFAMIGNDTVMCTEQGNWTRLPECLEVKCPFPPRPENGYVNYPAKPVLLYKDKATFGCHETYKLDGPEEAECTKTRTWSFLPTCRESCKLPVKKATVLYQGMRVKIQEQFKNGMMHGDKIHFYCKNKEKKCSYTVEAHCRDGTIEIPSCFKEHSSLAFWKTDASELTPC
[3]
  binding to PS on PS-coated plates: bind to PS in a concentration-dependent manner
[4]
  binding to phospholipids: binds to the anionic phospholipids PS, PA, PI and PG, but not to the neutral lipids, PC and SM
ABAE cells
  binding to LPC-treated ABAE cells: bind to PS exposed at the cell surface
  staining of naturally apoptotic ABAE cells: stain the apoptotic cells

B2: hβ2GPI: Human β2GPI purified from human plasma (protein)
chain: GRTCPKPDDLPFSTVVPLKTFYEPGEEITYSCKPGYVSRGGMRKFICPLTGLWPINTLKCTPRVCPFAGILENGAVRYTTFEYPNTISFSCNTGFYLNGADSAKCTEEGKWSPELPVCAPIICPPPSIPTFATLRVYKPSAGNNSLYRDTAVFECLPQHAMFGNDTITCTTHGNWTKLPECREVKCPFPSRPDNGFVNYPAKPTLYYKDKATFGCHDGYSLDGPEEIECTKLGNWSAMPSCKASCKLPVKKATVVYQGERVKIQEKFKNGMLHGDKVSFFCKNKEKKCSYTEDAQCIDGTIEVPKCFKEHSSLAFWKTDASDVKPC
[5]; 2 μg/ml, LPC
  mediation of ch3G4 binding to ABAE cells with exposed PS: able to mediate binding
[5]; 10% MS and LPC, absence of ch3G4
  binding to endothelial cells with exposed PS: does not bind endothelial cells with exposed PS in the absence of ch3G4
[6]
  binding to LPC-treated ABAE cells: negligible
